Measured values taken from PMC11438860, “Human 8-oxoguanine glycosylase OGG1 binds nucleosome at the dsDNA ends and the super-helical locations”.

Key:
full-length OGG1 (EMSA) = full-length OGG1 (EMSA) (human, UniProt O15527 1-345); assay: EMSA; 2.5 uM DNA; all DNA shifted at 5 uM protein or above; two super-shift bands; EMSA: 40 mM HEPES pH 7.4, 50 mM NaCl, 5 mM bME, 5% glycerol, 30 min on ice, 4-20% native gel; cryo-EM OGG1-DNA assembly: 20 mM HEPES pH 7.4, 100 mM NaCl, 5 mM bME, on ice; details: protein: recombinant; blunt
full-length OGG1 (EMSA), sequence (O15527 whole entry): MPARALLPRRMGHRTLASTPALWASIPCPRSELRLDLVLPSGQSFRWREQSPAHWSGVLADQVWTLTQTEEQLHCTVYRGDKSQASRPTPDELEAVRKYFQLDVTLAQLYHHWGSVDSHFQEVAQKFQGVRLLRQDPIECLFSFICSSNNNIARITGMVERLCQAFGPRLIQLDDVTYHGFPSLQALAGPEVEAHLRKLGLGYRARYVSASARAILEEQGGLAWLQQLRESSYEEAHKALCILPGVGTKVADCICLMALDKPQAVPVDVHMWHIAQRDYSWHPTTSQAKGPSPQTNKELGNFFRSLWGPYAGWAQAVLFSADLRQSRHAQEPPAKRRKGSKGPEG

OGG1(K249Q) = OGG1(K249Q) (human, UniProt O15527 1-345, K249Q); assay: cryo-EM; protein:DNA 1.5:1; 8-oxoG flipped out, DNA bent 65 degrees; 3.6 A; EMSA: 40 mM HEPES pH 7.4, 50 mM NaCl, 5 mM bME, 5% glycerol, 30 min on ice, 4-20% native gel; cryo-EM OGG1-DNA assembly: 20 mM HEPES pH 7.4, 100 mM NaCl, 5 mM bME, on ice; details: protein: recombinant; tags: N-terminal 6His; blunt
OGG1(K249Q), sequence (O15527 whole entry K249Q): as the sequence (O15527 whole entry) above, with K249Q counted along it

B1: 35-bp 8-oxoG DNA (dsDNA)
DNA 1: ATGCCTCGCAGAATCCCGCTGCCGAGGCCGCTCAA
DNA 2: TTGAGCGGCCTCGGCAGCGGGATTCTGCGAGGCAT
modifications: 8-oxo-dG at position 18 of strand 1 (text numbers it 17), within unmethylated Cp-8-oxoG
B1: binds (full-length OGG1 (EMSA)); binds (OGG1(K249Q)).
